In the nanobody polyreactivity screen of Harvey et al. (2022):

Assay: yeast display, Sf9 membrane polyspecificity reagent, FACS + sequencing; frameworks hold sequencing errors
Procedure, shortened: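 Genes from sorted yeast were amplified by colony PCR, read by MiSeq 2 × 250 sequencing and filtered on CDR length. These cells carried a synthetic nanobody library in Saccharomyces cerevisiae BJ5465 and were sorted by FACS into low and high (top ~1%) gates on anti-HA and streptavidin fluorescence. Polyreactivity is labelled according to the gate of origin.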

Row | Sequence | polyreactivity (PSR sort gate)
1 | QVQLEESGGGLVQAGGSLRLSCAASGSILRRYAMGWYRQAPGKEREFVAAMSYSGSRTYYADSVKGRFTISRDNAKYTVYLQMYSLKPEDTAVYYCAADSYGSRYEYWGLGTQVTVSS | high polyreactivity
2 | QVQLEESGGGLVQAGGSLRLSCAASGSILTDNAMGWYRQAPGKERELVAANSYSGASTYYADSVKGRFTISRDNAKNTVYLQMNSLKPEDTAVFYCAARYVSATPQLKARVRYYYWGQGTQVTVSS | high polyreactivity
3 | QVQLEESGGGLVQAGGSLRLSCAASGSILVIYTMGWYRQAPGKERELVAGINYSGGRTYYADSVKGRFTISRDNAKNTVYLQMNSLKPEDTAVYYCSADYYFLDWYDYWGQGTQVTVSS | low polyreactivity
4 | QVQLEESGGGLVQAGGSLRLSCAASGSILVKYAMGRYRQAPGKERELVASITSTGNTYYADSVKGRFTISRDNAKNTVYLQMNSLKPEDTAVYYCAADAAFTYVYFQSDGYNYWGQGTQVTVSS | low polyreactivity
5 | QVQLEESGGGLVQAGGSLRLSCAASGSILVRYAMGWYRQAPGKERELVAAITYSVGSTYYADSVKGRFTISRDNAKNTVYLQMNSLKPEDTAVYYCAASGGTEVLLMDYWGQGTQVTVSS | low polyreactivity
6 | QVQLEESGGGLVQAGGSLRLSCAASGSISSFNTMGWYRQAPGKERELVAAITRDGSTYYADSVKGRFTISRDNAKNTVYLQMNSLKPEDTAVYYCAARGWYATWLYYYWGQGTQVTVSS | high polyreactivity
7 | QVQLEESGGGLVQAGGSLRLSCAASGSTFDVYAMGWYRQAPGKERELVAAIRSSGGSTFYADSVKGRFTISRDNAKNIVYLQMNSLKPEDTAVYYCAARSFVVSGYNKYYEYGYWGQGTQVTVSS | low polyreactivity
8 | QVQLEESGGGLVQAGGSLRLSCAASGSTFFIYAMGWYRQAPGKERELVAVIRNIDVRTYYADSVKGRFTISRDNAKNTVYLQMNSLKPEDTAVYYCAADELLDESVDMYYWGQGTQVTVSS | low polyreactivity
9 | QVQLEESGGGLVQAGGSLRLSCAASGSTFGKNAMGWYRQAPGKERELVASITWRGGSTYYADSVKGRFTISRDNAKNTVYLQMNSLKPEDTAVYYCAADYVVSAFDYWGQGTQVTVSS | low polyreactivity
10 | QVQLEESGGGLVQAGGSLRLSCAASGSTFKTYASGWYRQAPGKERELVAAISWSGGSTYYAESVKGRFTISRDNAKNTVYLQMNSLKPEDTAVYYCNAGWGYPSPWFIGEYWGQGTQVTVSS | low polyreactivity
11 | QVQLEESGGGLVQAGGSLRLSCAASGSTFRDYAMGWYRQAPGKQRELVAAITSGGSTNYADSVKGRFTISRDNAKNTVYLQMNSLKPEDTAVYYCNARYAGWYTPWGRQSVYSDDYWGQGTQVTVSS | low polyreactivity
12 | QVQLEESGGGLVQAGGSLRLSCAASGSTFSYYAKGWYRQAPGKERELVAVISRGGSTNYADSVKGRFTISRDNAKNTVYLQMNSLKPEDTAVYYCAADAIPDSVRYWEYDYWGQGTQVTVSS | low polyreactivity
13 | QVQLEESGGGLVQAGGSLRLSCAASGSTFTPNAMGWYRQAPGKEREFVAGIDWNDGSTYYADSVKGRFTISRDNAKNTVYLQMNSLQPEDTEVYYCNAQWVSWWSLYDYWGQGTQVTVSS | high polyreactivity
14 | QVQLEESGGGLVQAGGSLRLSCAASGSTFTRYAMGWYRQAPGKERELVAAISRGGSTNYADSVKGRFTISRDNAKNTVYLQMNSLKPEDTAVYYCAARSWYLRYDYWGQGTQVTVSS | high polyreactivity
15 | QVQLEESGGGLVQAGGSLRLSCAASGSTFVYNAMGWYRQAPGKEMELVAAISRRGGSTYYADSVKGRFTISRDNAKNTVYLQMNSLKPEDTAVYYCAADPSYYTYFSFDLSESDYWGQGTQVTVSS | low polyreactivity
16 | QVQLEESGGGLVQAGGSLRLSCAASGSTFYINAMGWYRQAPGKERELVAAITWRGGRTYYADSVKGRFTISRDNAKNTVYLQLNSLKPEDTAVYYCAAKVRWHRGTSSYYYWGQGTQVTVSS | high polyreactivity
17 | QVQLEESGGGLVQAGGSLRLSCAASGSTYWLYPMGGYRQATGKERELVATISERGGSTYYADSVKGRFTISRDNAKNTVYLQMNSLKPEDTAVYYCAAHVYGSWPDYDYWGQGTQVSVSS | low polyreactivity
18 | QVQLEESGGGLVQAGGSLRLSCAASGYTFESYPMGWYRQAPGKEREFVAVISSSDTSTSYADSVKGRFTISRDNAKNTVYLQMNSLNPEDTAVYYCAAYSSPYYITYYWYNYDYWGQGTQVTVSS | low polyreactivity
19 | QVQLEESGGGLVQAGGSLRLSCAASGYTFRGNARGWYRQAPGKERELVASISYSGGTTYADSVKGRFTISRDNAKNTVYLHRNSLKQEDTAVYYCNAAGFYYLYSHRQYEFWGQGTQLTVSS | low polyreactivity
20 | QVQLEESGGGLVQAGGSLRLSCAASGYTSLYYGMGWYRQAPGKERELVASISRGGSTYADSVKGRFTISRDNAKNTVYLLMNRLKPEDTAVYYCNADGGWDDPWSGWVEYDYWGQGTQVTGSS | low polyreactivity
21 | QVQLEESGGGLVQAGGSLRLSCAASVFTFSRYAMGWYRQAHGKVREIVAAISYRGGSTYADSVKGRFTISRDNAKNTVYLQMNSLKPEDTAVYYCAALRWGTDVWRRRIGSLLMGYSGQGTQVTVSS | high polyreactivity
22 | QVQLEESGGGLVQAGGSLRLSCAATGILRLNAIGWYRHAPGKEREFVATISRSGGITYYADSVKGRFTISRDNAKNTVYLQMNSLKPEDTAVYYCAKGGYSLYGYWGQGTQVTVSS | high polyreactivity

Row | Sequence | polyreactivity (PSR sort gate)
23 | QVQLEESGGGLVQAGGSLRLSCAAYGGIFGYYPMGWYRQATGKERELVAAINYSGGSTYYADSVKGRFTISRDNSKNTVYLQMNSLKPEVTAVYYCAKRSYGGTLHYAFDSWGQGTQVTVSS | low polyreactivity
24 | QVQLEESGGGLVQAGGSLRLSCAAYGSTFSYNAMGGSRPAPGTQRELVAAITSSGSSTYYADSVKGRFTISRYNAKNTVYFQMNSLKPEDTAVYYCNAEVLFVAGQVQRNSGDYWGQGTQVTVSS | low polyreactivity
25 | QVQLEESGGGLVQAGGSLRLSCAAYYAMGWYRQAPGKERELVAAISSTGRTNYADSVKGRFTISRDNAKNTVYLQMNSLKPEDTAVYYCNAGDRSGMEYWGQGTQVTVSS | low polyreactivity
26 | QVQLEESGGGLVQAGGSLRLSCADSGSTLYWNAMGWYRQAPGKERELVAVISESGGTTYYADSVKGRFTISRDNAKNTVYLQMNSLKPEDTAVYYCAAVWYYQFGVWGYYWGQGTQVTVSS | low polyreactivity
27 | QVQLEESGGGLVQAGGSLRLSCPPSGSTYYVYAMGWYRPAPGKERELVAAIDGGDTYYADSVKGGFTISRDNAMNTVFLQMNSLKPEDTAVYYCAAESLPEISVGLGFWGQGTQVTVSS | low polyreactivity
28 | QVQLEESGGGLVQAGGSLRLSFAASGYTFDPYDMGWYRQAPGKERELVASISWSGGDTYYADSVKGRFTISRDNAKNTVYLQMNSLKPEDTAVYYCAADRYIPRSIIMDYWGQGNQVTVSS | low polyreactivity
29 | QVQLEESGGGLVQAGGSLRLSSAASGGTFRPYAMGWYRQAPGKERELVATIRSSGGRTYYADSVKGRFTISRDNAKNTVYLQMTSLKPEDTAVYYCAKRAQTYYGYDYWGQGTQVTVSS | high polyreactivity
30 | QVQLEESGGGLVQAGGSLRLSWAASGITFAYYAMGWYRQAPGKERELVAAINYNGGRTYYADSVKGRFTISRDNAKNTVYLQMNSLKPEDTAVYYCAARGYRHFYYWGQGTQVTVSS | high polyreactivity
31 | QVQLEESGGGLVQAGGSLRLTCAASGRIFFQNTIGWYRQAPGQERELVAAITSDGSTYYADSVKGRFTISRDNAKNTVYLQMNSLKPEDTAVYYCAAEISYRWWYKLGFTSFDYWGQGTQVTVSS | low polyreactivity
32 | QVQLEESGGGLVQAGGSLRLTCAASGRTFDFYAMGWYRQAPGKEREFVAAITFSTGSTTYADSVKGRFTISRDNAKNTVYLQMNSLKPEDTAVYYCNADAFNKISYVWYDYWGQGTQVTVSS | low polyreactivity
33 | QVQLEESGGGLVQAGGSLRLTCAATGRIYFYGMGRYRQAPGNERELVATITSVSNTYYADSVKGRFTKSRDNAKNTVYLVMNSLKPEETAVYYCAAVTRGNWVYYWGQRTQVTVSS | high polyreactivity
34 | QVQLEESGGGLVQAGGSLRLTCAGSGSIFYVYPMGWYRPAPGKERELVAAIYSGASTYYADSVKGRFTISRDNAKNTVYLQKNSLKPEDTAVYYCAAYVFFQTYFSYYVEGDFWGQGTQVTVSS | low polyreactivity
35 | QVQLEESGGGLVQAGGSLRLTGAASGSTVVSYAMGWYRQERGKEWELVAAISSSSGRTRYADSVKGSFTISRDNAKNTVYLQMNSLKPEDTAVYYCAARRQSTRPGFYYWGQGTQVTVSS | high polyreactivity
36 | QVQLEESGGGLVQAGGSLRVSCAPSGRTFGWYTMGWYRQAPGKERELVAVISSTGGRTYYADSVKGRFTISRDNAKNTVYLQMNSLKPEDTAVYYCAAEYVSAKWESGYWGQGTQVTVSS | low polyreactivity
37 | QVQLEESGGGLVQAGGSLSLSCAASGNFFVLYAMGCYRQAPGKERELVASITSDGITYYADSVKGRFTMSRDNAKNTVYLQMNSLKPEDTAVYYCAVDRSYRYLPRGDYWGQGTQVTVSS | low polyreactivity
38 | QVQLEESGGGLVQAGGSLSLSCDASGRNFEGYAMGWYRQAPGKERELVAAINWSGGTTHYADSVKGRFTISRDNANNTVYLQINSLKPADTAVYYCAVRGRTPYDYWGQGTQVTVSS | low polyreactivity
39 | QVQLEESGGGLVQAGGTLRLSCAACGRTFYRYAMGWYRKAPGKERQLVAAISASGGITYYADSVKGRFTISRDNAKNNVYLQMNSLKADDTAVYYCAVRYNPWYGNYDYWGQGTQVTVSS | high polyreactivity
40 | QVQLEESGGGLVQAGGTLRLSCAASGRIFGWYAMGWYRQPPGKERELVAAISSGGRTNYADSVKGRFTISRDNAKNTVYLQMNSLKPEDTAVYYCNARSTYLPYKFGYDYWGQGTQVTVSS | low polyreactivity
41 | QVQLEESGGGLVQAGGTLRLSCAASGSIFRNYAMGWYRQAPGKEWQLVAAISRSGTSTYYADSVKGRFTISRDNAKNTVYFQMNSLKPEDYAVYYCNARTYVAVGFNYWGQGTQVTVSS | high polyreactivity
42 | QVQLEESGGGLVQAGVSLRLSCAASGIIFHFNDMVWYRQAPGKERELLAAIDSTGSTNYADSVKGRFTISRDNAKNTVYLQMNSLKPEDTAVYYCAVLNHRVDSVLTRYYYWGQGTQVTVSS | low polyreactivity
43 | QVQLEESGGGLVQAGVSLRLSCAASGRIFSSNAMGWYRQAPGKERELVAAITYSAGSTYYAVSVKGRFTISRDNAKNTVYLQMNSLKPEDTAVYYCAADSYYDRTIQFEFYARTYDYWGQGTQVTVSS | low polyreactivity
